Results on ten substances are retold here after article PMC11445458.

Where “and” joins values, the source holds several entries; their conditions need not be identical. Identical values can stand only once.

For assay [1], the target named is adaptor protein (gp41) of bacteriophage JBD30 (bacteriophage JBD30 (Casadabanvirus JBD30)). The assay can be described thus: cryo-EM structure; single-particle reconstructions (icosahedral, C5, C12, C6, C3, asymmetric, localized) of purified JBD30 virions and empty particles in phage buffer (10 mM MgSO4, 10 mM NaCl, 50 mM Tris pH 8); native assembly.
Assay [2] deals with baseplate hub protein (gp53) of bacteriophage JBD30 (bacteriophage JBD30 (Casadabanvirus JBD30)). Described as above.
The target in assay [3] is distal tail protein (gp49) of bacteriophage JBD30 (bacteriophage JBD30 (Casadabanvirus JBD30)). Described as above.
Assay [4] concerns the target major capsid protein (gp38) of bacteriophage JBD30 (bacteriophage JBD30 (Casadabanvirus JBD30)). The assay can be described thus: cryo-EM structure; single-particle reconstruction of JBD30 procapsids found in the purified phage sample (icosahedral, C5, localized C12 portal).
The target is the same in assay [5]. Kind of assay: cryo-EM structure; single-particle reconstructions (icosahedral, C5, C12, C6, C3, asymmetric, localized) of purified JBD30 virions and empty particles in phage buffer (10 mM MgSO4, 10 mM NaCl, 50 mM Tris pH 8); native assembly.
Assay [6] concerns the target major tail protein (gp44) of bacteriophage JBD30 (bacteriophage JBD30 (Casadabanvirus JBD30)). The description is as above.
The target of assay [7] is minor capsid protein (gp39) of bacteriophage JBD30 (bacteriophage JBD30 (Casadabanvirus JBD30)). The assay is described as above.
Assay [8] deals with portal protein (gp32) of bacteriophage JBD30 (bacteriophage JBD30 (Casadabanvirus JBD30)). Kind of assay: cryo-EM structure; single-particle reconstruction of JBD30 procapsids found in the purified phage sample (icosahedral, C5, localized C12 portal).
The target is the same in assay [9]. Kind of assay: cryo-EM structure; single-particle reconstructions (icosahedral, C5, C12, C6, C3, asymmetric, localized) of purified JBD30 virions and empty particles in phage buffer (10 mM MgSO4, 10 mM NaCl, 50 mM Tris pH 8); native assembly.
Assay [10] concerns the target receptor binding protein (gp54) of bacteriophage JBD30 (bacteriophage JBD30 (Casadabanvirus JBD30)). Described as above.
For assay [11], the target named is stopper protein (gp42) of bacteriophage JBD30 (bacteriophage JBD30 (Casadabanvirus JBD30)). Described as above.
The target in assay [12] is tape measure protein (gp46) of bacteriophage JBD30 (bacteriophage JBD30 (Casadabanvirus JBD30)). The assay is described as above.

A word on the stoichiometry N: it is the number of molecules, sites or subunits per partner or assembly. In assay [1], “adaptor protein (gp41) of bacteriophage JBD30 (natural protein)” had a stoichiometry N of 12.
With “baseplate hub protein (gp53) of bacteriophage JBD30 (natural protein)”, the stoichiometry N in [2] was 3.
For “distal tail protein (gp49) of bacteriophage JBD30 (natural protein)”, the stoichiometry N in assay [3] was 3.
For “major capsid protein (gp38) of bacteriophage JBD30 (natural protein)”, the stoichiometry N in [4] is 5 and 6; in [5], 5 and 6.
“major tail protein (gp44) of bacteriophage JBD30 (natural protein)” had a stoichiometry N in assay [6] of 6.
The substance “minor capsid protein (gp39) of bacteriophage JBD30 (natural protein)” displayed a stoichiometry N in assay [7] of 3.
Take “portal protein (gp32) of bacteriophage JBD30 (natural protein)”: the stoichiometry N in assay [8] and in assay [9] was 12 throughout.
The substance “receptor binding protein (gp54) of bacteriophage JBD30 (natural protein)” registered a stoichiometry N in assay [10] of 3.
For the substance “stopper protein (gp42) of bacteriophage JBD30 (natural protein)”, the stoichiometry N in assay [11] worked out at 6.
Regarding “tape measure protein (gp46) of bacteriophage JBD30 (natural protein)”, the stoichiometry N in assay [12] was found to be 3.
